Measured values: patent publication US20210079037A1, “LIGHT-SWITCHABLE POLYPEPTIDE AND USES THEREOF” (TECHNISCHE UNIVERSITÄT MÜNCHEN, priority 2017, published 2021)
Values belong to the molecule of their own block, whether it stands above or below them. Numbered stars: 1 amine (or outer) side, 2 acyl side, 3 side chain; on linkers, the order of the positions; unused ones are H or OH. Square brackets hold non-standard residues; d marks the D form. Caf = 4′-carboxyphenylazophenylalanine, O=C([C@H](Cc1ccc(/N=N/c2ccc(C(=O)[*:3])cc2)cc1)N[*:1])[*:2]

Test system: mouse anti-6×His antibody alkaline phosphatase (AP) conjugate
Assay: ELISA for light-induced reversible binding of an immunoglobulin to ProtL^Caf-ABD fusion proteins
Details: for change in enzyme activity of bound Ig-AP conjugate after irradiation with UV light: UV light at 365 nm, 5 min; for affinity for the IgG (ELISA signal): ground state / illuminated with visible light
Experimental: ELISA was performed at ambient temperature in a 96-well Maxisorb microtiter plate (Nunc, Langenselbold, Germany).
Then, the wells were blocked with […] Roti-Block (Carl Roth, Karlsruhe, Germany) diluted 1:10 in ddH2O for 1 h and washed three times with PBS containing 0.1% v/v Tween 20 (PBS/T). After that, the purified ProtL^Caf-ABD fusion protein from Example 11 was applied in a dilution series in PBS/T and incubated for 1 h to effect complex formation between the ABD moiety and the pre-adsorbed HSA. The wells were then washed three times with PBS/T and incubated with 50 μl of a 1:1000 dilution in PBS/T of the aforementioned mouse anti-6×His Ig-AP conjugate.
All subsequent washing steps were performed in the dark. […] After 5 min at 25° C., the absorbance at 405 nm was measured using a SpectraMax 250 microtiter plate reader (Molecular Devices, Sunnyvale, Calif., USA).

- Kd (ground state (no UV), curve fit of the ELISA data, read-out: dissociation constant for the complex with the anti-6×His antibody): ~140 nM
- affinity for the IgG (ELISA signal): showed affinity for the IgG
- affinity for the IgG (ELISA signal) (listed as Caf337): high affinity
B1: ProtL^Caf337: ProtL-ABD fusion protein with Caf at position 337 and mutations Tyr361Asn and Leu365Ser (SEQ ID NO: 86) (protein)
chain: MKEEVTIKVNLI[Caf]ADGKTQTAEFKGTFEEATAKAYANADLSAKENGEYTADLEDGGNTINIKFAGGAVDANSLAEAKVLANRELDKYGVSDYYKNLINNAKTVEGVKALIDEILAALP
- change in enzyme activity of bound Ig-AP conjugate after irradiation with UV light: clear decrease
- dissociation constant for the complex with the anti-6×His antibody (after irradiation with UV light at 365 nm): too low to deduce a dissociation constant

B2: ProtL^Caf364: ProtL-ABD fusion protein modified with Caf at position 364 (protein)
chain: MKEEVTIKVNLIFADGKTQTAEFKGTFEEATAKAYAYAD[Caf]LAKENGEYTADLEDGGNTINIKFAGGAVDANSLAEAKVLANRELDKYGVSDYYKNLINNAKTVEGVKALIDEILAALP
- change in enzyme activity of bound Ig-AP conjugate after irradiation with UV light: much less signal decrease

B3: ProtL^Caf347: ProtL-ABD fusion protein with Caf at position 347 and mutation Tyr361Ala (protein)
chain: MKEEVTIKVNLIFADGKTQTAE[Caf]KGTFEEATAKAYAAADLLAKENGEYTADLEDGGNTINIKFAGGAVDANSLAEAKVLANRELDKYGVSDYYKNLINNAKTVEGVKALIDEILAALP
- change in enzyme activity of bound Ig-AP conjugate after irradiation with UV light: much less signal decrease

B4: ProtL^Caf360: ProtL-ABD fusion protein modified with Caf at position 360 (protein)
chain: MKEEVTIKVNLIFADGKTQTAEFKGTFEEATAKAY[Caf]YADLLAKENGEYTADLEDGGNTINIKFAGGAVDANSLAEAKVLANRELDKYGVSDYYKNLINNAKTVEGVKALIDEILAALP
- change in enzyme activity of bound Ig-AP conjugate after irradiation with UV light: much less signal decrease

B5: ProtL-ABD: unmodified protein L domain B1 fused to a human albumin-binding domain (SEQ ID NO: 61) (protein)
chain: MKEEVTIKVNLIFADGKTQTAEFKGTFEEATAKAYAYADLLAKENGEYTADLEDGGNTINIKFAGGAVDANSLAEAKVLANRELDKYGVSDYYKNLINNAKTVEGVKALIDEILAALP
modifications: ProtL-ABD fusion protein
- change in enzyme activity of bound Ig-AP conjugate after irradiation with UV light: did not reveal any change in binding activity

B6: ProtL^Caf368: ProtL-ABD fusion protein modified with Caf at position 368 (protein)
chain: MKEEVTIKVNLIFADGKTQTAEFKGTFEEATAKAYAYADLLAK[Caf]NGEYTADLEDGGNTINIKFAGGAVDANSLAEAKVLANRELDKYGVSDYYKNLINNAKTVEGVKALIDEILAALP
- change in enzyme activity of bound Ig-AP conjugate after irradiation with UV light: much less signal decrease

B7: ProtL^Caf369: ProtL-ABD fusion protein modified with Caf at position 369 (protein)
chain: MKEEVTIKVNLIFADGKTQTAEFKGTFEEATAKAYAYADLLAKE[Caf]GEYTADLEDGGNTINIKFAGGAVDANSLAEAKVLANRELDKYGVSDYYKNLINNAKTVEGVKALIDEILAALP
- change in enzyme activity of bound Ig-AP conjugate after irradiation with UV light: much less signal decrease
